The values that follow come from the Immune Epitope Database (IEDB).

Some targets named below: HLA-A*02:02; HLA-A*02:03; HLA-A*02:06.
Common to all, as to assay: IEDB peptide-MHC binding, purified MHC/competitive/radioactivity; filed as Kd, often an IC50 or EC50 that approximates it; ≥ and ≤ were set here for values at or beyond the usual limits of such assays
The mark [1] stands for this setting: source organism: Vaccinia virus WR.
[2] abbreviates: source organism: SARS coronavirus Tor2.
[3] abbreviates: source organism: Mammarenavirus juninense.
[4] abbreviates: source organism: Lassa virus Josiah.

Usually Kd stands for a measure of binding affinity in units of concentration. In the case of RLYNSLKRFT, the Kd amounted to 1060 nM with HLA-A*02:02 (setting [1]), 444 nM with HLA-A*02:03 (setting [1]) and 7290 nM in the experiment with HLA-A*02:06 (setting [1]).
For SINNQLMYDI the same measures were 492 nM, 482 nM and 4830 nM.
On the same counts, the results for YLGHSAGFT are 874 nM, 225 nM and 4550 nM.
For the sequence IIRVTTELNI, the values for the Kd with HLA-A*02:02 (setting [1]), with HLA-A*02:03 (setting [1]) and with HLA-A*02:06 (setting [1]) were 9960 nM, 8760 nM and 13700 nM, respectively.
Take VMCGGSLYV: the Kd with HLA-A*02:02 (setting [2]) was 0.606 nM; with HLA-A*02:03 (setting [2]) it was 7.5 nM; in the experiment with HLA-A*02:06 (setting [2]), 6.81 nM.
For TLDAANHSI the same measures were 92.4 nM, 283 nM and 28.9 nM.
On the same counts, the results for LLFNKVTLA are 0.953 nM, 1.06 nM and 9.01 nM.
Take LMIFISSFL: the Kd amounted to 0.651 nM in the experiment with HLA-A*02:02 (setting [1]), 0.13 nM in the experiment with HLA-A*02:03 (setting [1]) and 17.8 nM with HLA-A*02:06 (setting [1]).
On the same counts, the results for NIKPVIVPDI are 10300 nM, 745 nM and 945 nM.
For SAFNDDGIYI the same measures were 35.2 nM, 67.7 nM and 40.9 nM.
As for ITTLLNETA, the figures for the equilibrium dissociation constant (Kd) with HLA-A*02:02 (setting [1]), with HLA-A*02:03 (setting [1]) and with HLA-A*02:06 (setting [1]) were 414 nM, 936 nM and 596 nM, respectively.
For LIISTDQDT the same measures were no less than 77800 nM, no less than 78100 nM and no less than 77100 nM.
As for IALALEQYGI, the Kd with HLA-A*02:02 (setting [1]) stood at 980 nM; with HLA-A*02:03 (setting [1]), 4920 nM; with HLA-A*02:06 (setting [1]), 1130 nM.
On the same counts, the results for NITTLLNET are 1300 nM, 2900 nM and 2310 nM.
For LTTVFIKYV the same measures were 3650 nM, 676 nM and 130 nM.
As for YLLGDSDSVA, the Kd was 1.97 nM with HLA-A*02:02 (setting [1]), 22.8 nM with HLA-A*02:03 (setting [1]) and 135 nM with HLA-A*02:06 (setting [1]).
On the same counts, the results for TAATKRYPGV are no less than 25500 nM, 10500 nM and 5570 nM.
For TTNNLLEQLI the same measures were 8880 nM, no less than 21000 nM and 13100 nM.
Consider YIENTNQGNI, for which the Kd with HLA-A*02:02 (setting [1]) came out at 1220 nM; in the experiment with HLA-A*02:03 (setting [1]), 582 nM; in the experiment with HLA-A*02:06 (setting [1]), 6200 nM.
Turning to RVKQWVMDTL, the Kd in the experiment with HLA-A*02:02 (setting [1]) is 3480 nM; with HLA-A*02:03 (setting [1]), 689 nM; with HLA-A*02:06 (setting [1]) it was no less than 27800 nM.
For SVDVDIYDAV, the Kd worked out at 0.427 nM with HLA-A*02:02 (setting [1]), 9.18 nM with HLA-A*02:03 (setting [1]) and 3.3 nM with HLA-A*02:06 (setting [1]).
As to FTNSQIFNII, the Kd in the experiment with HLA-A*02:02 (setting [1]) stood at 143 nM; with HLA-A*02:03 (setting [1]), 457 nM; in the experiment with HLA-A*02:06 (setting [1]), 1200 nM.
On the same counts, the results for QTVDFTDCRT are no less than 30500 nM, no less than 54300 nM and 3640 nM.
For DIYDAVRAFL the same measures were 1460 nM, 6950 nM and 12100 nM.
For the sequence YNFSLSAAV, the figures for the Kd with HLA-A*02:02 (setting [3]), with HLA-A*02:03 (setting [3]) and in the experiment with HLA-A*02:06 (setting [3]) were no less than 46200 nM, no less than 78100 nM and no less than 77000 nM, respectively.
As for ALSGVFCGV, the Kd with HLA-A*02:02 (setting [2]) stood at 1.16 nM; with HLA-A*02:03 (setting [2]), 11.6 nM; with HLA-A*02:06 (setting [2]) it was 49.8 nM.
KTKISVEKI: the Kd turned out to be 7600 nM with HLA-A*02:02 (setting [1]), 112 nM in the experiment with HLA-A*02:03 (setting [1]) and 10700 nM with HLA-A*02:06 (setting [1]).
For the sequence CNYSKYWYL, the Kd with HLA-A*02:02 (setting [4]) came out at 3660 nM; with HLA-A*02:03 (setting [4]), 7130 nM; with HLA-A*02:06 (setting [4]), 2700 nM.
For the sequence DTSNNIAEYI, the Kd in the experiment with HLA-A*02:02 (setting [1]) is 3330 nM; in the experiment with HLA-A*02:03 (setting [1]), 9220 nM; in the experiment with HLA-A*02:06 (setting [1]), no less than 45700 nM.
For NIISYIILFI the same measures were 123 nM, 133 nM and 72 nM.
On the same counts, the results for DTIAHINTLI are 1160 nM, 114 nM and no less than 62200 nM.
Consider VVFLHVTYV, for which the Kd came out at 7.75 nM in the experiment with HLA-A*02:02 (setting [2]), 0.281 nM with HLA-A*02:03 (setting [2]) and 3.86 nM with HLA-A*02:06 (setting [2]).
